± gives the uncertainty stated by the source.
Experiment: self-splicing fitness, log relative to wild type (ln ratio); higher = more splicing; Tetrahymena group I intron in knt gene, E. coli kanamycin selection, DiMSum; sequences stand for … in CUCUCU…GGAGGGAAAAGUUAUCAGGCAUGCACCUGGUAGCUAGUCUUUAAACCAAUAGAUUGCAUCGGUUUAAAAGGCAAGACCGUCAAAUUGCGGGAAAGGGGUCAACAGCCGUUCAGUACCAAGUCUCAGGGGAAACUUUGAGAUGGCCUUGCAAAGGGUAUGGUAAUAAGCUGACGGACAUGGUCCUAACCACGCAGCCAAGUCCUAAGUCAACAGAUCUUCUGUUGAUAUGGAUGCAGUUCACAGACUAAAUGUCGGUCGGGGAAGAUGUAUUCUUCUCAUAAGAUAUAGUCGGACCUCUCCUUAAUGGGAGCUAGCGGAUGAAGUGAUGCAACACUGGAGCCGCUGGGAACUAAUUUGUAUGCGAAAGUAUAUUGAUUAGUUUUGGAGUACUCGUGGUCG
Method in brief: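 DiMSum derived fitness as the error-weighted combination of fold changes across replicates, kanamycin versus no kanamycin, normalised to wild type. E. coli BL21(DE3) held the library, which randomised all eight P1ex-region intron nucleotides within the knt kanamycin-resistance gene on pET-22b(+). Six replicate transformations grew overnight at 37°C or 30°C on LB agar with or without 25 μg/mL kanamycin, also containing 100 μg/mL carbenicillin, 50 μM IPTG and 0.2% rhamnose, and pooled colonies were amplicon-sequenced on an Illumina HiSeq 2500.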

Sequence	self-splicing fitness (ln) (30 °C)	self-splicing fitness (ln) (37 °C)
CCUUAGCAAUAUUACGGUUU	-4.06 ± 0.16	-2.42 ± 0.14
CCUUAGCAAUAUUACGUAAA	-3.63 ± 0.26	-1.88 ± 0.3
CCUUAGCAAUAUUACGUAGU	-2.48 ± 0.095	-0.664 ± 0.098
CCUUAGCAAUAUUACGUGCG	-3.52 ± 0.21	-2.04 ± 0.17
CCUUAGCAAUAUUACGUGGA	-4.29 ± 0.34	-2 ± 0.2
CGAAAGCAAUAUUACGAACA	-1.92 ± 0.13	-0.112 ± 0.12
CGAAAGCAAUAUUACGAACU	-1.25 ± 0.091	0.0371 ± 0.14
CGAAAGCAAUAUUACGAAUU	-4.27 ± 0.29	-1.55 ± 0.14
CGAAAGCAAUAUUACGACUC	-2.84 ± 0.14	-1.63 ± 0.14
CGAAAGCAAUAUUACGAGGA	-3.36 ± 0.25	-1.13 ± 0.21
CGAAAGCAAUAUUACGAGUA	-3.07 ± 0.19	-2.36 ± 0.18
CGAAAGCAAUAUUACGAUAU	-3.42 ± 0.28	-1.27 ± 0.2
CGAAAGCAAUAUUACGCAAU	-3 ± 0.13	-3.64 ± 0.26
CGAAAGCAAUAUUACGCACG	-3.27 ± 0.17	-2.03 ± 0.15
CGAAAGCAAUAUUACGCAGC	-3 ± 0.24	-3.68 ± 0.33
CGAAAGCAAUAUUACGCCAA	-2.65 ± 0.2	-2.41 ± 0.22
CGAAAGCAAUAUUACGCCUG	-0.16 ± 0.095	0.392 ± 0.11
CGAAAGCAAUAUUACGCGCC	-1.85 ± 0.21	0.0231 ± 0.24
CGAAAGCAAUAUUACGCGCU	-2.08 ± 0.13	-1.6 ± 0.12
CGAAAGCAAUAUUACGCUGA	-3.09 ± 0.22	-1.54 ± 0.19
CGAAAGCAAUAUUACGCUUU	-3.54 ± 0.35	-2.7 ± 0.41
CGAAAGCAAUAUUACGGAAA	-2.9 ± 0.28	-2.49 ± 0.22
CGAAAGCAAUAUUACGGACG	-2.73 ± 0.21	-2.25 ± 0.22
CGAAAGCAAUAUUACGGCAA	-1.82 ± 0.11	-1.03 ± 0.1

Sequence	self-splicing fitness (ln) (30 °C)	self-splicing fitness (ln) (37 °C)
CGAAAGCAAUAUUACGGGAA	-2.17 ± 0.4	-2.08 ± 0.26
CGAAAGCAAUAUUACGGUAA	-2.13 ± 0.16	-1.56 ± 0.15
CGAAAGCAAUAUUACGGUCA	-0.303 ± 0.12	-0.586 ± 0.14
CGAAAGCAAUAUUACGUAGA	-2.43 ± 0.092	-1.49 ± 0.12
CGAAAGCAAUAUUACGUAUU	-3.3 ± 0.15	-1.51 ± 0.13
CGAAAGCAAUAUUACGUCCA	-1.26 ± 0.12	-0.276 ± 0.13
CGAAAGCAAUAUUACGUCGU	-3.33 ± 0.14	-2.36 ± 0.18
CGAAAGCAAUAUUACGUCUC	-2.71 ± 0.42	-1.15 ± 0.26
CGAAAGCAAUAUUACGUGCU	-3.73 ± 0.18	-2.41 ± 0.18
CGAAAGCAAUAUUACGUGUG	-0.273 ± 0.054	0.27 ± 0.066
CGAAAGCAAUAUUACGUUCA	-0.312 ± 0.074	0.0231 ± 0.091
CGAAAGCAAUAUUACGUUGC	-4.09 ± 0.17	-3.23 ± 0.2
CGACAGCAAUAUUACGACUU	-1.1 ± 0.059	-0.881 ± 0.066
CGACAGCAAUAUUACGCAUA	-3.03 ± 0.18	-2.33 ± 0.18
CGACAGCAAUAUUACGCCUG	-0.901 ± 0.066	-0.0701 ± 0.069
CGACAGCAAUAUUACGCGAU	-2.8 ± 0.22	-2.46 ± 0.28
CGACAGCAAUAUUACGGACA	-1.24 ± 0.11	-0.761 ± 0.12
CGACAGCAAUAUUACGGCCG	-2.22 ± 0.12	-1.21 ± 0.12
CGACAGCAAUAUUACGGGAG	-3.21 ± 0.15	-1.97 ± 0.13
CGACAGCAAUAUUACGGUGU	-3.48 ± 0.14	-2.77 ± 0.16
CGACAGCAAUAUUACGUAAC	-4.37 ± 0.23	-2.03 ± 0.31
CGACAGCAAUAUUACGUACU	-1.26 ± 0.082	-0.578 ± 0.089
CGACAGCAAUAUUACGUCCU	-0.518 ± 0.072	-0.311 ± 0.078

Source: the supplement of paper PMC7877785
